Experiments:
新冠病毒RBD抗原 (表达的RBD蛋白) = 新冠病毒RBD抗原 (表达的RBD蛋白) (SARS-CoV-2, UniProt P0DTC2 319-541)
RBD-tag1 = RBD-tag1 (SARS-CoV-2, UniProt P0DTC2 319-541)

B1: 23D52 (antibody, V domains shown)
VH: EVQLVESGGGLVQPGGSLRLSCAASGITVSSNYMNWVRQAPGKGLEWVSVLYSGGSTDYADSVKGRFTISRDNSKNTLYLQMNSLRAEDTAVYYCARDLVVYGMDVWGQGTTVTVSS
VL: DIQLTQSPSFLSASVGDRVTITCRASQGISSYLAWYQQTPGKAPKLLIYAASTLQSGVPSRFSGSGSGTEFTLTISSLQPEDFATYYCQQLNSYPFTFGPGTKVHIK
notes: also called 抗人新冠病毒抗体23D52
EC50 (新冠病毒RBD抗原 (表达的RBD蛋白)): 0.0299 µg/mL
IC50 (RBD-tag1): 0.111 µg/mL
